Drawing on patent US20140350088, this text covers Kd for eight sequences.

The target of series [1] is biotinylated human glucagon (Homo sapiens) (UniProt P01275). Kind of series: SPR. Conditions: 37 C, HBS-EP pH 7.4.
Series [2] concerns the target T1, human alpha-CGRP (Homo sapiens) (UniProt P06881).
T1 sequence: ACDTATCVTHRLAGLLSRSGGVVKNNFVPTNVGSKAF
Kind of series: SPR. Conditions: L-RNA, 37 C.

Series [3] deals with biotinylated human glucagon (Homo sapiens) (UniProt P01275). Kind of series: competition. The settings on record: L-DNA; competitive pull-down, 37 C, 1 mM Mg, 1 mM Ca.
For a further series, the target named is T2, human C5a (Homo sapiens) (UniProt P01031).
T2 sequence: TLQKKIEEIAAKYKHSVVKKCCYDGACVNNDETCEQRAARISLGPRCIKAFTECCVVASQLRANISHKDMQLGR
Kind of series: SPR. Conditions: L-RNA; 37 C, HBS-EP pH 7.4.

Chain of biotinylated human glucagon (Homo sapiens) (P01275 53-81): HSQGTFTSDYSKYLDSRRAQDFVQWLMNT

On to “ACTCGAGAGGAAAGGTTGGTAAAGGTTCGGTTGGATTCACTCGAGT [259-H6-002]”, for which, in series [1] (L-DNA), the Kd was found to be 10.9 nM.
In turn, “CAGACGUGUGUGGGUAGAUGCACCUGCGAUUCGCUAAAAAGUGCCACACGUCUG [NOX-G11stabi2]” returned a Kd in series [1] (L-RNA) of 67.1 nM.
In the case of “CCGUGCUGUCGGAGACUACUCGUCGAGUAGAAAUAGGUCCCCUCCCACGG [226-F2-001-D41/D44]”, in series [2] (dC at 41 and 44, 13-fold improvement over parent), the Kd was 0.2 nM.
“CCGUGCUGUCGGAGACUACUCGUCGAGUAGAAAUAGGUCCCCUCCCACGG [226-F2-001-D41]” gave a Kd in series [2] (dC at 41, HBS-EP pH 7.4) of 0.55 nM.
“CCGUGCUGUCGGAGACUACUCGUCGAGUAGAAAUAGGUCCCCUCCCACGG [226-F2-001-D44]” displayed a Kd in series [2] (dC at 44, HBS-EP pH 7.4) of 0.52 nM.
Take “CCGUGCUGUCGGAGACUACUCGUCGAGUAGAAAUAGGUCCCCUCCCACGG [226-F2-001]”: in series [2] (HBS-EP pH 7.4), the Kd stood at 2.6 nM.
In series [3], “GCAGTGGGGAAATGGGAGGGCTAGGTGGAAGGAATCTGAGCTACTGC [257-E1-001]” registered an equilibrium dissociation constant (Kd) of 186 nM.
“GCCUGAUGUGGUGGUGAAGGGUUGUUGGGUGUCGACGCACAGGC [NOX-D19001]” showed a Kd in the series with human C5a (Homo sapiens) of 1.4 nM.

A word on the Kd: it is the equilibrium constant for the complex coming apart.
